The numbers were not newly measured in PMC5274714, which cites them from elsewhere.

This series addresses human serum albumin (Homo sapiens) (UniProt P02768). The experiment in a line: SPR.

Usually Kd stands for the constant that tells how readily two partners part at equilibrium. Regarding protein G ABD3 (from UniProt P19909), the dissociation constant Kd is 4 nM.
